This note sets out measurements from paper PMC8691648, “Heterophilic and homophilic cadherin interactions in intestinal intermicrovillar links are species dependent” (PLoS Biology, 2021).

For series [1], the target named is mm PCDH24 EC1-2Fc (mouse). Nature of the series: SPR; OpenSPR (Nicoya); mm PCDH24 EC1-2Fc immobilised on a Protein A sensor chip (>800 RU); mm CDHR5 EC1-2 injected at 2 to 23.5 uM; 20 mM Tris HCl pH 7.5, 150 mM NaCl, 50 mM KCl, 2 mM CaCl2, 0.5 mM TCEP, 1% BSA; 20 uL/min; kinetic fit, 1:1 model.
Series [2] concerns the molecule itself. As to the kind of experiment: bead aggregation assay; homophilic; Protein G Dynabeads coated with one Fc fusion captured from concentrated serum-free medium and washed; 50 mM Tris pH 7.5, 100 mM NaCl, 10 mM KCl, 0.2% BSA, 2 mM CaCl2; 60 min on a depression slide, then rocking 1 to 2 min.
Series [3] deals with the molecule itself. Nature of the series: crystal structure; contacts between copies of one fragment in the crystal (asymmetric unit or symmetry mates); vapor diffusion at 4 °C.

mm CDHR5 EC1-2 (domain or fragment) came in with a Kd in series [1] of 16 µM.

B1: hs PCDH24 EC1-MAD10Fc (Fc fusion, human)
chain: NVAPKFLANMTSVILPEDLPVGAQAFWLVAEDQDNDPLTYGMSGPNAYFFAVTPKTGEVKLASALDYETLYTFKVTISVSDPYIQVQREMLVIVEDRNDNAPVFQNTAFSTSINETLPVGSVVFSVLAVDKDMGSAGMVVYSIEKVIPSTGDSEHLFRILANGSIVLNGSLSYNNKSAFYQLELKACDLGGMYHNTFTIQCSLPVFLSISVVDQPDLDPQFVREFYSASVAEDAAKGTSVLTVEAVDGDKGINDPVIYSISYSTRPGWFDIGADGVIRVNGSLDREQLLEADEEVQLQVTATETHLNIYGQEAKVSIWVTVRVMDVNDHKPEFYNCSLPACTFTPEEAQVNFTGYVDEHASPRIPIDDLTMVVYDPDKGSNGTFLLSLGGPDAEAFSVSPERAVGSASVQVLVRVSALVDYERQTAMAVQVVATDSVSQNFSVAMVTIHLRDINDHRPTFPQSLYVLTVPEHSATGSVVTDSIHATDPDTGAWGQITYSLLPGNGADLFQVDPVSGTVTVRNGELLDRESQAVYYLTLQATDGGNLSSSTTLQIHLLDINDNAPVVSGSYNIFVQEEEGNVSVTIQAHDNDEPGTNNSRLLFNLLPGPYSHNFSLDPDTGLLRNLGPLDREAIDPALEGRIVLTVLVSDCGEPVLGTKVNVTITVEDINDNLPIFNQSSYNFTVKEEDPGVLVGVVKAWDADQTEANNRISFSLSGSGANYFMIRGLVLGAGWAEGYLRLPPDVSLDYETQPVFNLTVSAENPDPQGGETIVDVCVNVKDVNDNPPTLDVASLRGIRVAENGSQHGQVAVVVASDVDTSAQLEIQLVNILCTKAGVDVGSLCWGWFSVAANGSVYINQSKAIDYEACDLVTLVVRACDLATDPGFQAYSNNGSLLITIEDVNDNAPYFLPENKTFVIIPELVLPNREVASVRARDDDSGNNGVILFSILRVDFISKDGATIPFQGVFSIFTSSEADVFAGSIQPVTSLDSTLQGTYQVTVQARDRPSLGPFLEATTTLNLFTVDQSYRSRLQFSTPKEEVGANRQAINAALTQATRTTVYIVDIQDIDSAARARPHSYLDAYFVFPNGSALTLDELSVMIRNDQDSLTQLLQLGLVVLGSQESQESDLSKQLISTVPRARDPPV
notes: protocadherin-24 (PCDH24, also CDHR2), human, full-length extracellular domain EC1 to MAD10; DNA cloned with the signal peptide, protein secreted; numbers count on: the mature protein; linker between the PCDH24 fragment and the Fc tag in the CMV vector; also called Fc-tagged full-length hs PCDH24 extracellular domain; human protocadherin-24; not shown: Fc, C-terminal, kept
Consider B1, for which the binding result in series [2] is recorded as “binds”.

B2: hs PCDH24 EC1-2 (mammalian-produced, form II crystal) (domain or fragment, human)
chain: NVAPKFLANMTSVILPEDLPVGAQAFWLVAEDQDNDPLTYGMSGPNAYFFAVTPKTGEVKLASALDYETLYTFKVTISVSDPYIQVQREMLVIVEDRNDNAPVFQNTAFSTSINETLPVGSVVFSVLAVDKDMGSAGMVVYSIEKVIPSTGDSEHLFRILANGSIVLNGSLSYNNKSAFYQLELKACDLGGMYHNTFTIQCSLPVFLSISVVDQPDLDTVPRARDPPVGG
modifications: N-linked glycosylation at N9
notes: protocadherin-24 (PCDH24, also CDHR2), human, repeats EC1-2; DNA cloned with the signal peptide in a CMV vector, protein secreted; the structure includes residues N1 to D218; numbers count on: the mature protein; The range is that of the residues in the structure; The crystallised sample also held mammalian-produced hs CDHR5 EC1-2, which is not in the structure; also called Hs PCDH24 EC1-2 II; …
As for B2, the binding result in series [3] is recorded as “binds”.

As a reminder, the Kd is the concentration at which binding is half-saturated.
